Where “and” joins values, the source holds several entries; their conditions need not be identical. Identical values can stand only once.
Legend:
[1] = molecular target: variant human IL-13 (R130Q) (human) (UniProt P35225); experiment: cell-based or functional assay
cynomolgus monkey IL-13 [2] = molecular target: T1, cynomolgus monkey IL-13 (cynomolgus monkey, UniProt Q0PW92 21-132); experiment: cell-based or functional assay
cynomolgus monkey IL-13 [3] = molecular target: T1, cynomolgus monkey IL-13; experiment: cell-based or functional assay; remark: listed apart in the source
human IL-13 (wild type) [4] = molecular target: T2, human IL-13 (wild type) (human, UniProt P35225 35-146); experiment: cell-based or functional assay
T2 sequence (P35225 35-146 limits assumed): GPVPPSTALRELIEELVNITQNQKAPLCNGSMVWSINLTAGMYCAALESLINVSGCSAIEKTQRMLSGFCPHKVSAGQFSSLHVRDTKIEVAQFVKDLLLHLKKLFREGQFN

Rat IL-13 = molecular target: T3, Rat IL-13 (rat, UniProt P42203 19-131, limits assumed); experiment: cell-based or functional assay
T3 sequence (looked up): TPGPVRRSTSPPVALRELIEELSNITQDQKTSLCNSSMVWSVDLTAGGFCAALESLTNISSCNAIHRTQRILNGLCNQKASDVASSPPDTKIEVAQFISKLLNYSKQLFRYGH

human IL-13 (wild type) [5] = molecular target: T2, human IL-13 (wild type); experiment: Biacore 3000 SPR; Ab652 Fab captured by immobilised anti-human F(ab')2, hIL-13 titrated as analyte; average of 3 determinations
Protocol: (§1) BIA (Biamolecular Interaction Analysis) was performed using a BIAcore 3000 (BIAcore AB). Affinipure F(ab′)₂ Fragment, goat anti-human IgG, F(ab′)₂ fragment specific (Jackson ImmunoResearch) was immobilised on a CM5 Sensor Chip via amine coupling chemistry to a capture level of ≈4000 response units (RUs). A blank surface was prepared in a similar way, omitting the F(ab′)₂ fragment from the procedure. HBS-EP buffer (10 mM HEPES pH 7.4, 0.15 M NaCl, 3 mM EDTA, 0.005% Surfactant P20, BIAcore AB) was used as the running buffer with a flow rate of 10 μl/min. A 10 μl injection of Ab652 Fab at ˜0.2 μg/mL was used for capture by the immobilised anti-human IgG-F(ab′)₂ to allow sufficient IL-13 binding but also to minimise mass transport limited binding effects. Human IL13 was titrated over the captured Ab652 at various concentrations (10 nM to 0.31 nM) at a flow rate of 30 μL/min The surface was regenerated by a 10 μl it injection of 40 mM HCl, followed by a 5 μl it injection of 5 mM NaOH at a flowrate of 10 μL/min
(§2) Background subtraction binding curves were analysed using the BIAevaluation software (version 3.2) following standard procedures. Kinetic parameters were determined from the fitting algorithm.

human IL-13 (wild type) [6] = molecular target: T2, human IL-13 (wild type); experiment: Biacore 3000 SPR; purified Ab652 Fab captured by anti-human F(ab')2, hIL-13 as analyte; average of the table's runs
Protocol: as §1, §2

T1 sequence (Q0PW92 entry or part of it): as the sequence (P35225 35-146 limits assumed) above, with G1S, R10K, M42V, S67N, H83R, L100V counted along it
Sequence of variant human IL-13 (R130Q) (human) (P35225 35-146, stated change not applied): as the sequence (P35225 35-146 limits assumed) above

B1: Ab652 (humanised anti-human IL-13 Fab, graft gL1gH2) (Fab, V domains shown)
VH: QVTLKESGPVLVKPTETLTLTCTVSGFSLTNYHVQWIRQPPGKALEWLGVMWSDGDTSFNSVLKSRLTISRDTSKSQVVLTMTNMDPVDTATYYCARDGTIAAMDYFDYWGQGTLVTVSS
VL: DIQMTQSPSSLSASVGDRVTITCLASEDISNYLAWYQQKPGKAPKLLIYHTSRLQDGVPSRFSGSGSGTDFTLTISSLQPEDFATYYCQQGYRFPLTFGGGTKVEIKR
notes: also called Ab652 Fab
[1]
  IC50 Ab652 Fab, HEK-Blue STAT-6 assay; IL-13 source natural human T cell, R130Q variant (250 pg/ml): 1.66 ng/mL
Cynomolgus monkey IL-13 [2]
  neutralisation potency against cynomolgus IL-13 relative to human IL-13 from rat fibroblasts, HEK Blue assay: ≤ 3 fold
Cynomolgus monkey IL-13 [3]
  IC50 Ab652 Fab, HEK-Blue STAT-6 assay; cynomolgus IL-13 on human receptor (1/4,000 = 250 pg/ml): 1.61 ng/mL
Human IL-13 (wild type) [4]
  IC50 Ab652 Fab, HEK-Blue STAT-6 assay; IL-13 source E. coli-derived, wild type (250 pg/ml): 1.05 ng/mL
  IC50 Ab652 Fab, HEK-Blue STAT-6 assay; IL-13 source mammalian (rat fibroblasts), wild type (250 pg/ml): 0.57 ng/mL
  IC50 Ab652 Fab, HEK-Blue STAT-6 assay; IL-13 source natural human T cell, wild type (250 pg/ml): 2.12 ng/mL
  IC50 Ab652 Fab, HEK-Blue STAT-6 assay; nebulised Fab (IL-13 source of this row not given): 1.15 ng/mL
Rat IL-13
  IC50 of Ab652, HEK Blue assay; recombinant mammalian cell derived rat IL-13 (transfected HEK293 supernatant), n = 1: 953 ng/ml and 20000 pM
Human IL-13 (wild type) [5]
  Kd: 15.2 pM and 15 pM
  koff: 6.52e-05 s⁻¹
  kon: 4.51e+06 M⁻¹ s⁻¹
Human IL-13 (wild type) [6]
  Kd: 13.4 pM and 13 pM
  koff: 6.27e-05 s⁻¹
  kon: 4.82e+06 M⁻¹ s⁻¹

Source: US20100260773A1 (UCB, published 2010)
